Source: patent US20230365675A1 (published 2023)

Tests used:
[1] = biological target: CD33-GFP fusion protein, wild type (WT), on 293FT cells (UniProt P20138); test: FACS, WT CD33-GFP on 293FT cells
CD33 on MOLM-13 cells = CD33 on MOLM-13 cells (human, UniProt P20138 18-364); test: cell-based or functional assay
[2] = biological target: T1, Mutant CD33-GFP M6 (F43N) on 293FT cells (UniProt P20138 18-364); test: FACS, mutant CD33-GFP on 293FT cells
T1 construct: whole, on cells; not shown: GFP fused to CD33

[3] = biological target: T2, Mutant CD33-GFP M8 (K52A) on 293FT cells (UniProt P20138 18-364); test: FACS, mutant CD33-GFP on 293FT cells
T2 construct: whole, on cells; not shown: GFP fused to CD33

[4] = biological target: T3, Mutant CD33-GFP M7 (R98D) on 293FT cells (UniProt P20138 18-364); test: FACS, mutant CD33-GFP on 293FT cells
T3 construct: whole, on cells; not shown: GFP fused to CD33

[5] = biological target: Biotinylated CD33 protein (UniProt P20138); test: Octet competition on biotinylated CD33; competitor 413
[6] = biological target: Biotinylated CD33 protein (UniProt P20138); test: Octet competition on biotinylated CD33; competitor 416
[7] = biological target: Biotinylated CD33 protein (UniProt P20138); test: Octet competition on biotinylated CD33; competitor 389
[8] = biological target: Biotinylated CD33 protein (UniProt P20138); test: Octet competition on biotinylated CD33; competitor 430
[9] = biological target: Biotinylated CD33 protein (UniProt P20138); test: Octet competition on biotinylated CD33; competitor 348
[10] = biological target: Biotinylated CD33 protein (UniProt P20138); test: Octet competition on biotinylated CD33; competitor h195
[11] = biological target: Biotinylated CD33 protein (UniProt P20138); test: Octet competition on biotinylated CD33; competitor 420
[12] = biological target: Mutant CD33-GFP M12 (G88S) on 293FT cells (UniProt P20138); test: FACS, mutant CD33-GFP on 293FT cells
[13] = biological target: Mutant CD33-GFP M15 (Q171A) on 293FT cells (UniProt P20138); test: FACS, mutant CD33-GFP on 293FT cells
[14] = biological target: Mutant CD33-GFP M19 (348ATAI) on 293FT cells (UniProt P20138); test: FACS, mutant CD33-GFP on 293FT cells
[15] = biological target: Mutant CD33-GFP JS25 (V25M) on 293FT cells (UniProt P20138); test: FACS, mutant CD33-GFP on 293FT cells
[16] = biological target: Mutant CD33-GFP M13 (R91E) on 293FT cells (UniProt P20138); test: FACS, mutant CD33-GFP on 293FT cells
[17] = biological target: Mutant CD33-GFP JS23 (L23N) on 293FT cells (UniProt P20138); test: FACS, mutant CD33-GFP on 293FT cells
[18] = biological target: Mutant CD33-GFP JS28 (S28L) on 293FT cells (UniProt P20138); test: FACS, mutant CD33-GFP on 293FT cells
[19] = biological target: Mutant CD33-GFP M18 (353AAL) on 293FT cells (UniProt P20138); test: FACS, mutant CD33-GFP on 293FT cells
[20] = biological target: Mutant CD33-GFP N20D on 293FT cells (UniProt P20138); test: FACS, mutant CD33-GFP on 293FT cells
[21] = biological target: Mutant CD33-GFP M17 (F21Y) on 293FT cells (UniProt P20138); test: FACS, mutant CD33-GFP on 293FT cells
[22] = biological target: Mutant CD33-GFP M9 (Y49, 50A) on 293FT cells (UniProt P20138); test: FACS, mutant CD33-GFP on 293FT cells
[23] = biological target: Mutant CD33-GFP M11 (L78T) on 293FT cells (UniProt P20138); test: FACS, mutant CD33-GFP on 293FT cells
[24] = biological target: Mutant CD33-GFP M4 (R122D) on 293FT cells (UniProt P20138); test: FACS, mutant CD33-GFP on 293FT cells
[25] = biological target: Mutant CD33-GFP JS24 (Q24E) on 293FT cells (UniProt P20138); test: FACS, mutant CD33-GFP on 293FT cells
[26] = biological target: Mutant CD33-GFP M10 (Y127A) on 293FT cells (UniProt P20138); test: FACS, mutant CD33-GFP on 293FT cells
[27] = biological target: Mutant CD33-GFP M5 (AEAD), quadruple mutant, on 293FT cells (UniProt P20138); test: FACS, mutant CD33-GFP on 293FT cells
[28] = biological target: Mutant CD33-GFP M14 (E170R) on 293FT cells (UniProt P20138); test: FACS, mutant CD33-GFP on 293FT cells
[29] = biological target: Mutant CD33-GFP M16 (4889AII) on 293FT cells (UniProt P20138); test: FACS, mutant CD33-GFP on 293FT cells
[30] = biological target: Biotinylated CD33 protein (UniProt P20138); test: Octet competition on biotinylated CD33; competitor 429
[31] = biological target: Biotinylated CD33 protein (UniProt P20138); test: Octet competition on biotinylated CD33; competitor 424
[32] = biological target: T4, Mutant CD33-GFP M2 (H45E) on 293FT cells (UniProt P20138 18-364); test: FACS, mutant CD33-GFP on 293FT cells
T4 construct: whole, on cells; not shown: GFP fused to CD33

[33] = biological target: T5, Mutant CD33-GFP M1 (W22A) on 293FT cells (UniProt P20138 18-364); test: FACS, mutant CD33-GFP on 293FT cells
T5 construct: whole, on cells; not shown: GFP fused to CD33

[34] = biological target: T6, Mutant CD33-GFP M3 (N99A) on 293FT cells (UniProt P20138 18-364); test: FACS, mutant CD33-GFP on 293FT cells
T6 construct: whole, on cells; not shown: GFP fused to CD33

[35] = biological target: Biotinylated CD33 protein (UniProt P20138); test: Octet competition on biotinylated CD33; competitor 426
[36] = biological target: Biotinylated CD33 protein (UniProt P20138); test: Octet competition on biotinylated CD33; competitor 353

T5 sequence (P20138 18-364 W22A): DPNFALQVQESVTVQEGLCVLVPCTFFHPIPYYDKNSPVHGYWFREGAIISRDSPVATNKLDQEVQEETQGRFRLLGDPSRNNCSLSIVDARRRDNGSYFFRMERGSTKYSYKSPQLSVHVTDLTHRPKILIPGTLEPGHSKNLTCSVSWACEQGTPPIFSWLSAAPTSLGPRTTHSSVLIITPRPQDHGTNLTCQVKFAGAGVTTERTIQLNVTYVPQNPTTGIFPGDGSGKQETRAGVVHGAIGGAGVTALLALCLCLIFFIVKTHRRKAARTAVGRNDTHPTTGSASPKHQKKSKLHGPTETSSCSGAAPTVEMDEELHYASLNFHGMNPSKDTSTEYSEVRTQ
Mutant CD33-GFP M17 (F21Y) on 293FT cells, sequence (P20138 18-364 F21Y): as the sequence (P20138 18-364 W22A) above, with F4Y, A5W counted along it
Mutant CD33-GFP N20D on 293FT cells, sequence (P20138 18-364 N20D): as the sequence (P20138 18-364 W22A) above, with N3D, A5W counted along it
CD33-GFP fusion protein, wild type (WT), on 293FT cells, sequence (P20138 18-364): as the sequence (P20138 18-364 W22A) above, with A5W counted along it
T3 sequence (P20138 18-364 R98D): as the sequence (P20138 18-364 W22A) above, with A5W, R81D counted along it
Mutant CD33-GFP M5 (AEAD), quadruple mutant, on 293FT cells, sequence (P20138 other isoform, or with tags, fused parts or gaps mutant): as the sequence (P20138 18-364 W22A) above, with H28E, N82A, R105D counted along it
Mutant CD33-GFP JS28 (S28L) on 293FT cells, sequence (P20138 18-364 S28L): as the sequence (P20138 18-364 W22A) above, with A5W, S11L counted along it
T6 sequence (P20138 18-364 N99A): as the sequence (P20138 18-364 W22A) above, with A5W, N82A counted along it
Mutant CD33-GFP M11 (L78T) on 293FT cells, sequence (P20138 18-364 L78T): as the sequence (P20138 18-364 W22A) above, with A5W, L61T counted along it
Mutant CD33-GFP M14 (E170R) on 293FT cells, sequence (P20138 18-364 E170R): as the sequence (P20138 18-364 W22A) above, with A5W, E153R counted along it
T1 sequence (P20138 18-364 F43N): as the sequence (P20138 18-364 W22A) above, with A5W, F26N counted along it
Mutant CD33-GFP M15 (Q171A) on 293FT cells, sequence (P20138 18-364 Q171A): as the sequence (P20138 18-364 W22A) above, with A5W, Q154A counted along it
Mutant CD33-GFP M10 (Y127A) on 293FT cells, sequence (P20138 18-364 Y127A): as the sequence (P20138 18-364 W22A) above, with A5W, Y110A counted along it
T2 sequence (P20138 18-364 K52A): as the sequence (P20138 18-364 W22A) above, with A5W, K35A counted along it
Mutant CD33-GFP M13 (R91E) on 293FT cells, sequence (P20138 18-364 R91E): as the sequence (P20138 18-364 W22A) above, with A5W, R74E counted along it
Mutant CD33-GFP M12 (G88S) on 293FT cells, sequence (P20138 18-364 G88S): as the sequence (P20138 18-364 W22A) above, with A5W, G71S counted along it
Mutant CD33-GFP JS24 (Q24E) on 293FT cells, sequence (P20138 18-364 Q24E): as the sequence (P20138 18-364 W22A) above, with A5W, Q7E counted along it
Biotinylated CD33 protein, sequence (P20138 18-259 limits assumed): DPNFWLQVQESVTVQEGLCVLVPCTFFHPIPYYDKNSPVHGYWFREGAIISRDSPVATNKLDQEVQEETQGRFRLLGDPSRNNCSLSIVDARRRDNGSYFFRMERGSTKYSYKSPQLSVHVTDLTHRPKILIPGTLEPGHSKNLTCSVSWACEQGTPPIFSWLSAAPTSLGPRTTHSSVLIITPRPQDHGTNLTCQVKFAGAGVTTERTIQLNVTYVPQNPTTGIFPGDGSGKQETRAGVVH
T4 sequence (P20138 18-364 H45E): as the sequence (P20138 18-364 W22A) above, with A5W, H28E counted along it
Mutant CD33-GFP M4 (R122D) on 293FT cells, sequence (P20138 18-364 R122D): as the sequence (P20138 18-364 W22A) above, with A5W, R105D counted along it
Mutant CD33-GFP JS23 (L23N) on 293FT cells, sequence (P20138 18-364 L23N): as the sequence (P20138 18-364 W22A) above, with A5W, L6N counted along it
Mutant CD33-GFP JS25 (V25M) on 293FT cells, sequence (P20138 18-364 V25M): as the sequence (P20138 18-364 W22A) above, with A5W, V8M counted along it
Mutant CD33-GFP M9 (Y49, 50A) on 293FT cells, sequence (P20138 other isoform, or with tags, fused parts or gaps mutant): as the sequence (P20138 18-364 W22A) above, with A5W, Y32A, Y33A counted along it
CD33 on MOLM-13 cells, sequence (P20138 18-364): as the sequence (P20138 18-364 W22A) above, with A5W counted along it

FACS binding data [1] | FACS binding data [2] | FACS binding data [3] | FACS binding data [4] | Octet signal [5] | Octet signal [6] | Octet signal [8] | Octet signal [10] | Octet signal [11] | FACS binding data [12] | FACS binding data [13] | FACS binding data [14] | FACS binding data [15] | FACS binding data [16] | FACS binding data [17] | FACS binding data [18] | FACS binding data [19] | FACS binding data [20] | FACS binding data [21] | FACS binding data [22] | Molecule | further results
98.3 | 99 | 97.3 | 98.8 | 0.0204 | -0.0696 | 0.231 | 0.295 | -0.0387 | 99 | 98.2 | 99.6 | 99.7 | 98.7 | 99.1 | 99.6 | 99 | 98.7 | 98.2 | 0.64 | sdCD33_3 (VHH) VHH: DVQLVESGGGLVQPGGSLRLSCSVSGNIDRFYAMGWYRQAPGKQRELVAQLTNNEITTYGDSVEGQFSISGDFDANTVYLQMDSLKPEDTAVYYCHAHVTTTRWSQDYYWGQGTRVTVSS | Octet signal [7]: 0.152; Octet signal [9]: 0.0077; FACS binding data [23]: 78; FACS binding data [24]: 98.5; FACS binding data [25]: 99.4; FACS binding data [26]: 96.3; FACS binding data [27]: 0.31; FACS binding data [28]: 98.7; FACS binding data [29]: 98.4; Octet signal [30]: -0.13; Octet signal [31]: -0.108; FACS binding data [32]: 98.8; FACS binding data [33]: 99.4; FACS binding data [34]: 99.4; Octet signal [35]: -0.0122
98 | 97.6 | 66.1 | 97.1 | 0.865 | 0.552 | 1.44 | 1.37 | 0.95 | 98.6 | 98.9 | 98.3 | 99.6 | 98.5 | 98.4 | 99.6 | 15.6 | 96.6 | 94.1 | 0.22 | sdCD33_10 (VHH) VHH: QVQLVETGGGLVRAGGSLRLSCAASGRTADIYNIGWFRQAPGKEREFVAAITWIGRTPYYADAVKGRFAFSTDSAKNTVSLQMDNLKPEDTGVYYCNAAHYLEGNTDYYWGQGTQVTVSS | Octet signal [7]: 1.16; Octet signal [9]: 0.616; FACS binding data [23]: 67.3; FACS binding data [24]: 21.1; FACS binding data [25]: 98.2; FACS binding data [26]: 93.9; FACS binding data [27]: 0.12; FACS binding data [28]: 98.4; FACS binding data [29]: 98.6; Octet signal [31]: 0.628; Octet signal [36]: 1.01; FACS binding data [32]: 65.5; FACS binding data [33]: 99.1; FACS binding data [34]: 99; Octet signal [35]: 0.543
98.4 | 98.3 | 0.15 | 21.5 | -0.0267 | -0.28 | 0.0905 | 0.355 | -0.0649 | 99 | 98.8 | 99.6 | 99.5 | 99.1 | 99 | 99.6 | 99.5 | 98.5 | 98.5 | 97.4 | sdCD33_4 (VHH) VHH: QVKLEESGGGSVQAGESLRLSCTASGITFRDYDIDWYRQAPGKEREWLATITPSGTTHYPDSVKGRATISRDSAKNTVYLQMNSLKPEDTARYECNTLAYWGSGTQVTVSS | Octet signal [9]: -0.146; FACS binding data [23]: 62.8; FACS binding data [24]: 6.01; FACS binding data [25]: 99.3; FACS binding data [26]: 97.2; FACS binding data [27]: 0.16; FACS binding data [28]: 98.8; FACS binding data [29]: 98.7; Octet signal [30]: -0.26; Octet signal [31]: -0.271; Octet signal [36]: -0.101; FACS binding data [32]: 84.4; FACS binding data [33]: 99.3; FACS binding data [34]: 97; Octet signal [35]: -0.137

More lines, now with the values behind:

Molecule | FACS binding data [1] | FACS binding data [2] | FACS binding data [3] | FACS binding data [4] | Octet signal [5] | Octet signal [6] | Octet signal [8] | Octet signal [10] | Octet signal [11] | FACS binding data [12] | FACS binding data [13] | FACS binding data [14] | FACS binding data [15] | FACS binding data [16] | FACS binding data [17] | FACS binding data [18] | FACS binding data [19] | FACS binding data [20] | FACS binding data [21] | FACS binding data [22] | further results
hu195 (antibody) | 97.8 |  |  |  |  |  |  |  |  |  |  |  |  |  |  |  |  |  |  |  | 
Anti-CD33 CAR 6 (other) QVQLVETGGGLVRAGGSLRLSCAASGRTADIYNIGWFRQAPGKEREFVAAITWIGRTPYYADAVKGRFAFSTDSAKNTVSLQMDNLKPEDTGVYYCNAAHYLEGNTDYYWGQGTQVTVSSAAATTTPAPRPPTPAPTIASQPLSLRPEACRPAAGGAVHTRGLDFACDIYIWAPLAGTCGVLLLSLVITLYCKRGRKKLLYIFKQPFMRPVQTTQEEDGCSCRFPEEEEGGCELRVKFSRSADAPAYQQGQNQLYNELNLGRREEYDVLDKRRGRDPEMGGKPRRKNPQEGLYNELQKDKMAEAYSEIGMKGERRRGKGHDGLYQGLSTATKDTYDALHMQALPPR |  |  |  |  |  |  |  |  |  |  |  |  |  |  |  |  |  |  |  |  | Ratio (CD33 on MOLM-13 cells): 3.6; Testing FP2 Expression (CD33+) (CD33 on MOLM-13 cells): 22.9 % of constitutive-fluorescence-positive cells
sdCD33_2 (VHH) VHH: QVQLVQPGGSLRLFCVASEEFFSIYAMGWYRQAPGKQHEMVARFTRDGKITYADSAKGRFTITRDAKNTLNLQMNGLIPEDTAVYYCNINHYWGQGTQVTVSS | 98.3 | 95.3 | 91.2 | 0.48 | 0.623 | 0.0635 | 0.651 | 0.799 | 0.381 | 98.2 | 98.7 | 99 | 99.3 | 98.6 | 95.4 | 99.5 | 97.3 | 98.9 | 98.9 | 0.39 | Octet signal [7]: 0.584; FACS binding data [23]: 33.4; FACS binding data [24]: 1.43; FACS binding data [25]: 98.8; FACS binding data [26]: 98.5; FACS binding data [27]: 0.41; FACS binding data [28]: 98.2; FACS binding data [29]: 98.4; Octet signal [30]: 0.0422; Octet signal [31]: 0.0143; Octet signal [36]: 0.322; FACS binding data [32]: 2.54; FACS binding data [33]: 8.08; FACS binding data [34]: 81.9; Octet signal [35]: 0.158
